Kd and stoichiometry N data for three substances are collected here from paper PMC7470827.

One test deals with Syntaxin-16 N-peptide (UniProt Q8BVI5). The conditions noted are these: cited from earlier work.
Test [1] addresses Untagged Tlg2 SNARE motif (residues 258-327) (Chaetomium thermophilum). Kind of test: AUC; sedimentation velocity, 42,000 rpm, 20°C, gel filtration buffer; MBP-Tlg2(258-327) 9 µM, Tlg2(79-200) 72 µM, Tlg2(258-327) 168 µM; c(S) by SEDFIT.
In test [2] the target is MBP-tagged Tlg2 SNARE motif (residues 258-327) (Chaetomium thermophilum). Described as above.

Sequence of UniProt Q8BVI5 (Q8BVI5 1-27): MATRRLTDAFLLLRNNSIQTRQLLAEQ

Regarding Vps45 (from UniProt P97390), in the test with Syntaxin-16 N-peptide, the dissociation constant (Kd) is 27 nM. In turn, “Untagged Tlg2 SNARE motif (residues 258-327) (domain or fragment)” came in with a stoichiometry N in test [1] of 4. “MBP-tagged Tlg2 SNARE motif (residues 258-327) (domain or fragment)” had a stoichiometry N in test [2] of 4.
